These results are taken from a protein production outcome set (Wang et al. 2014).

The series is described as follows: label from the status in PepcDB records.
As for “MFITLSERFGLLLAGGFAIMTLAPLDKLGPGRTRSWRATALLVVLFSLFTILGTYNGNIVFQSFANLRAMGAVTAGLFGGPMVGALTGLIAGGHRYFIDVGGFSAVPCGLATFLEGLAAGLFAWRFPSRSLDWGTAMTFAAVGEAVHMCLVLGLARPYAQAVDLVEVIGLPMILLNGVGAAIFVQALRMQMHFRDLRDSSQARQILSIANRTLPHLRAGLSAASARATAEIILDETRVAAVALTSNDMVMAHVGAASDHHRAGHSVCTQATRRVATDGIPLFVTGHDEIGCQLEACPLCSAIIVPLRKGDTILGCLKLYGTKDRPLDQTLFELAKGLADLFATQIELEDIGIKNQLLARAEIRRLQAQINPHFLFNSLNTVASFCRTAPGQARELILDLARYMRRNLDTSREAIHLAEEVEQIRAYLVIEKARFGERIRAVIDIDPETEHCLVPPLLIQPLVENSVRHGILGNEEGGVVRLATSMEDGHVVVVVEDDGAGMPESTRQGILNGTPVTAHGEGIGASNCNQRLVQLYGPAYALSIDSAPGMGTRITFRVPASTDAEVFASAAA”, the protein production entry is reported as “failed”. For “MFKELHPNIRARILIQFLSKIIGSMIFPFMAIYFSMEINSKVAGILLMINVLAQFLAGMYGGHLADIIGRKKLMVAGELLKVFAFLGMVLCNSPVFHSPWITFVMLLLIGVAQGLINPAGEAMLIDVSTPENRSFMYSVSYWANNLSMMIGIIVGGWFFIDYLFPLLVALFIMSFVTAWLTISLISETLKQKAVLKKGSYGLVGMLKNYGQVLHDCRFLLYTLGGIAVMSIEFQRSNYISVRLAEDFQALLVHFGPLGNITLNGVQIVSVLTAVNTLFIVLFTVPVARFVTKRAQQPIMYVGFTLFAIGFAVCAFANNLAVLLLATAVLSIGELLYVPTRQTILAAIVDDNRRGAYMAFNGIIFQIGKMIGSVSLVFAPFIGKYGMATFTILLGVLSIVFSAAALKSGWKKVLAK”, the protein production entry was “failed”.

For the sequence “MFKLVFKQYKCKSTSPDLTEVVKIDDCVVKGNDQEKSDNNIVQRLSISNVESLQTMPGVKSPKDWRTYTLTNHPGIIVIRNPFSERGRRYWSARCLRDFPRTPNIVNLNERLFDESVRSDWWKQLNLCSDGVEFQRIKSAMRWTTFGYHHNWDTKIYDEEMQSPFPEDLSSLCGLFAQALGYADFKPEAAIVNYYPVGSTLSGHTDHSEPNKSAPLFSFSFGQTAIFLIGGRSLEEKPTAIYLQSGDVMIMSGESRLCYHAVPRIIKTQASATLSLIIEDVDNADIKTRTIDKDLFHDVGNPQFWEPFSRYMDDSRININIRQVLNPGDVKL”, the protein production result is “failed”. In the case of “MFKSVAKLGKSPIFYLNSQRLIHIKTLTTPNENALKFLSTDGEMLQTRGSKSIVIKNTDENLINHSKLAQQIFLQCPGVESLMIGDDFLTINKDRMVHWNSIKPEIIDLLTKQLAYGEDVISKEFHAVQEEEGEGGYKINMPKFELTEEDEEVSELIEELIDTRIRPAILEDGGDIDYRGWDPKTGTVYLRLQGACTSCSSSEVTLKYGIESMLKHYVDEVKEVIQIMDPEQEIALKEFDKLEKKLESSKNTSHEK”, the protein production result is “failed”. In the case of “MFKTLEVKYMEDRVLDWAVYEKTAREMVAEGLVLLKNDNKALPLKQGETVSVFGRMQNHYYKSGTGSGGMVNVAKVVGILDALNECKDVNVNQKLAETYAAWDKEHPVELGLGWGQEPWSQAEMPVTEELVQEAAGESDSAIVIIARTAGEDKDNTLEKGAFMLTDIETDMLRLVRENFQKMVVLLNVGGLIDMSFLDTISPDACMYVWQGGMVGGYGVVDVLVGDVSPSGKLTDTIAYDIKDYPAYDNFGGEERNFYAEDIYVGYRYFETFAKDKVRYPFGYGLSYTDFKIGVKHASLDFEKGVANICVKVTNTGKRLGKEVVQVYGEMPQGRLGKPSRVLIDFAKTKELVPGLSDELKFEIPLDRMASFDDSGATGHRNCYVLEAGDYTIHVGNSIRNTTECLFFELAETVELQKLQEALAPYEKFDRMKPFCDENGRMLIEYEETPLVTVDMYDRREQELPEEIPVTGDKGITLLDVREGKATMDEFIAQFDDEDLACFVRGEGMGSSLVTAGTASAFAGVSPNLIAHKIPSVCCDDGPSGMRLDSGMKAFSLPNGTLCGCSFNKELNTRLYALLGLEMTANKVEVLLGPGMNIHRHPLNGRNFEYFSEDPYLTGSIATAQLEGLKSSGVSGTIKHFCGNNQEYHRHTMDSVISQRALREVYLKGFEIAVKSGYADSVMTTYGLVNGLYTAGSYDLNTTILRNEWGFTGVVMTDWWASINRRGMEPDANDFATMIQAQNDMYMCCPDGSKNMGGDNVLEALHDGRILRAELQRIAKNVCSFAMDTNAFKRLVGEPVEIEIINRPKQADDFSIDDVEYINVDRDILIDLTEKASTADTNYVIALDVEHPGEYDVSLRGSSTLEKLAQLPCTLFFNGFPVSNFTFNGTDGKDVVIRKEVKFYSRFNVLRLYVKSNGLDLKDIKFSFEKEF”, the protein production entry was “failed”. Regarding “MFLKIPFKILRLATAYVRIRVKNIILKLKLVFGKNVFIGSNVVIDPGYHWLISIGNNSAITNGVTILSHDGSLSRHTGYTKIGKVSIGSNTFIGVKSIILPGVSIGNNVIIGAGSVVTKDIPDNSVAIGNPAVVVGSIKDYINKHKRMIRTSEVYECQSLLKDNIRDFKGEIGYVKTNFENHEDL”, the protein production entry was “failed”. For “MFLKKKLSAGKSVVGTMLNLVYNPDIVRIYAEAGLDYFIVDCEHAAYTFREINHLVSVAKNAGVSVLVRIPQVDRAHVQRLLDIGAEGFMIPGVQSAETMRETVRLAKYPPLGERGVGGSIVTDFKPVNWAEWVQERNDEIFIMAQIEHVKAVEDIDSILAVQGVDAVIFGPRDLSNDLGIIGQTEHPKVYECYEKVYRAADRQGVVKGFFTAADAAKMGWAVERGAQMLLWSGDVAALQTYTAKGVKTIKELPGFNP”, the protein production result is “not failed”. For “MFLLSGDPCFKTPPSTAKSISIPGQDSSLQLTCKGGGTSSGGSSTNSLTGSRPPKARPTILSSGLPEEPDQNLSSPEEVFHSGHSRNSSYASQQSKISGYSTEHSRSSSLSDLTHRRNTSTSSSASGGLGMTVEGPEGSEREHRPPEKPPRPPRPLHLSDRSFRRKKDSVESHPTWVDDTRIDADAIVEKIVQSQDFTDGSNTEDSNLRLFVSRDGSATLSGIQLATRVSSGVYEPVVIESH”, the protein production entry is recorded as “failed”.

For the sequence “MFLPKFNPIRSFSPILRAKTLLRYQNRMYLSTEIRKAIEDAIESAPVVLFMKGTPEFPKCGFSRATIGLLGNQGVDPAKFAAYNVLEDPELREGIKEFSEWPTIPQLYVNKEFIGGCDVITSMARSGELADLLEEAQALVPEEEEETKDR”, the protein production result was “failed”. For “MFLRTQARFFHATTKKMDFSKMSIVGRIGSEFTEHTSANNNRYLKYSIASQPRRDGQTNWYNITVFNEPQINFLTEYVRKGALVYVEADAANYVFERDDGSKGTTLSLVQKDINLLKNGKKLEDAEGQENAASSE”, the protein production result was “failed”. With “MFNKISLEIMKRSALTLMPTVLALAVGMAMPAVQAAINSDASVVGTESQWWNTYKVTLTNNGNQPVELRDASIAFDTNLSLSTPSWSAQGISYPSMSFSSNAQGSVFSNRLTLSFDQGSWVKTQLLPGASIDLTLGVSGVLELSLLQSTIALETDGEVEPGEPEISLELASPVQGAEFIEGQTVAIVANVTATNTTVKTVTFLVDGEQIALLEQAPFQASWTAAGEGAHSIKAIVEDASGLLKEQAVRITVKAEEIDPPVEPEVPVAPVIELTNPRNGQSVFLGKVTTLAANATDENNDLTAVEFLVNGESIGRVTQAPYQLAWTPVALGQYTIEAIAYDAAGHQTQTPMVTVNAKEMGTGNLSCDIKQIYREDGTECMGDDHPRRIIGYYTSWRTGKNGLPAYLAGDLPWEKLTHINYAFASINKSDFSMQVDDSATKMTWENVPGAEMDPSLPYQGHFNLLSKFKKQYPDVKTLISVGGWAETGGFYPMTTDLASCSVNMEGIKAFNKSAVDFIRQYDFDGVDIDYEYPSSMKDSGNPVDFEQSNKCRGQLWDNYMVMMTELRKALDKAGEEDGRRYMLTIASPSSAYLLRGMQDFAMQDVLDYVNIMSYDLHGTWNEFVGPQAALFDDGKDAELAKWGVYTTAEYQGIGYLNQAWTHHFFRGAFKPSQINMGIPYYTRGWQGVSGGDKGLWGRAVEPNQSSCPEGTTVCGWGAEGTDNIWHDVDANGNEIKAGVVPMWHAMNLMHAEKLGIDGMPSYGPAWGMDPNNPKHLIEGKYERVWSQELQTAWLWNDTKKVFLSIEDKDSLKPKLDYIVDNGLGGMMIWEMAGDYSYDAVKREYVIGSDMTSYAHEVFAAAKPMDIRHNDLPQPDSVIDVTVSTTEWPEGDSNYPINPKLVFTNHSNVAIPGGSTIEFLMPTSSGDIVKDWSGAGLKVIESGHTGSNFSVNGEKKLFHKVAVTLRSTETIPAGGEYSVDMVYYTPVSGVANGVRFIVGNETVGLKKDFPTLPAFEGATDGGNGNEGGAGQSCADAGINPNGLKVYPEFPRGDHAAGGDQLIHNGSVWQANWWTNSTPSSADASWKAVCKI”, the protein production result is “failed”. As for “MFNKKKTIASLIVLSSLASQIALTPISALADTHDTNNIALLQNTNENVPYKYTSTLTFPTLTNQTQEDYKLEIKLALPSGMNYTDLQVSVGGEDITNQVGTTSFDNSTNTVTFKFDKVTSWDSLSKAKVKFDWKTSYSGEGGEAKIDSLVATATATSEDKAGNKSTSTGSLKPKDISAPVVKAEETEITYSPGSDVTEEQFLTDIHASVTDNYDSTISLTSNFTSAVNLAVSGDYSVNVQATDKAGNVSNTLNVTVHVSTPAPVAGANITVNHLDSNGNKIAESDTLTGVVNSNYQSESKKITGYTLETTPTNATGTFTDTPQTVDYIYKKDTVTPTPITVNPVEPVKPVNPVVNKPVTVKPANDNTNPSTSNSVEKTTYSSLPTTGDTDQSKSSTIFGALLLLISAPLLLFKKK”, the protein production result is reported as “failed”. Consider “MFNKKPLADTTARRPSTGAQAKIYSRDNVARYSERARQRRRSHTIRHVALIVVLGVLLSATTAAGLWFATIMGKLGDSNVITDNLRRVLVDTDEAKDPFYVLLLGTDGRPGEDTYRADSIILARIDPTQKQATLISVPRDTKVEYKGETMKINACHTVGGAEAMVEAVNELCGVQISHYAEVSFDGMQALIDSVGGIDINATDDVDDPEHLDIKITAGQQHMDGATALTYARCRYTYADGDYTRMRHQRQVLGALANQILNNFDATKIFGLVNSLSDMLVTDMSVQDIVATVNAMRGMDVDGIYSANLPSYADDSTMIDGVSYVFVYEDELKEMMERVDAGKDPKGPNTMGLSDGSSSTIGDLNNNTSDDYANGTATSSVSSDDSDDSSDSSDSDYYEEPTGDGNGYEANY”, for which the protein production entry is reported as “failed”. Turning to “MFNKVAFMNIPMMDLIMIVIAIIITIGSFLFIAYLIFKYSKIKKQVKIIREVKINLPKMLKSNMIKNSFLIISLLCFYFGMLYIAGELVISHILFIAICWIVVFLYIIIKGETRGYICEEGLLVSGVLYSWKEFKDVKIEDNYIILTTPIHKIVIKKEKGVENILKNYLKRN”, the protein production result is listed as “failed”.

Regarding “MFNKVIMVGRLTRNVELKYLPSGSAAATIGLATSRRFKKQDGTLGEEVCFIDARLFGRTAEIANQYLSKGSSVLIEGRLTYESWMDQTGKKNSRHTITADSLQFMDKKSDNPQANAMQDSIMHENSNNAYPANHNAPSQDPFNQAYAQNAYAKENLQAQPSKYQNSVPEINIDEEEIPF”, the protein production result was “failed”.
